Experimental data reported in article PMC10790764.

Target: fusion protein F of hMPV A2-GFP (CAN97-83) on infected cells (human metapneumovirus A2 (CAN97-83))

other: 9 nM
B1: sdHMPV12 (VHH)
VHH: QVQLQESGGGLVQPGGSLRLSCAASGVSLAWYAIGWFRQAPGKDREGISCISASDDSTYYRDSVKGRVTISRDNGRNTVLLQMNSLKPEDTAVYYCATLRANYCSGPPTLGPYLGQGTQVTVSS
